Test results: the supplement of paper PMC10567573

B1: RTP4 (parent)
chain: AFGWFRCSSCQRSWASAQVQILCH
B2: C10orf62 (parent)
chain: GHSHHSHHGHPSHQSHSLPNRRH

Variants of: B1
Assay: protein stability index of a GFP-peptide fusion (GPS, HEK-293T) (PSI 1-6); higher = more stable
Settings: c terminus: a fixed tail appended
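Also: lentivirally expressed fusions sorted by FACS into six bins by GFP to DsRed ratio, PSI derived from sequencing read proportions per bin multiplied by bin number.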

Protein stability index, by site and new letter:
I21: T 2.9, K 1.03, W 1.37, H 2.27, Y 3.2, A 1.68, R 1.72, L 2.34, G 1.49, F 2.39, S 3.43, N 1.68, C 3.07
C23: T 1.93, N 2.21, L 2.78, S 1.8, Y 2.81, M 3.79, P 2.83, Q 3.85, R 1.49, I 4.29, D 1.92, F 2.59, K 2.35, H 1.84, E 2.8
Q18: C 3.51, H 2.68, A 2.37, P 2.52, K 1.42, I 2.59, W 2.88, D 2.22, S 2.14, N 1.71, V 4.68
A1: T 2.12, E 1.79, L 2.49, M 2.42, H 1.78, V 2.11, Y 2.87, R 3.15, S 4.21, K 3.61, W 2.44, C 2.22
F5: Q 2.99, K 3.49, Y 4, C 1.77, I 2.35, G 2.57
Q20: A 1.57, N 2.4, C 2.17, D 1.66, V 2.08, L 4.4, I 2.42, P 3.22, K 2.83, H 2.97, Y 3.08, T 1.24, S 2.84
W4: Y 2.37, E 1.91, L 1.67, T 1.47, G 3.48
R12: L 1.65, M 2.86, P 3.2, K 1.9, Y 2.83, T 3.84, W 2.71, S 2, D 2.1, C 3.76, N 1.91
Q11: R 2.89, W 1.81, T 3.55, E 1.88, K 3.01, P 2.27, N 2.49, Y 4.15, I 3.81, H 2.43, G 2.23, V 4.38, D 2.83
L22: D 1.79, C 1.4, G 1.41, W 2.17, N 2.66, R 1.61, P 3.05, H 2.13
S8: E 1.83, D 3.96, V 3.2, H 2.39
H24: D 1.97, Y 3.39, K 1.83, W 1.61, V 4.55, A 1.84, P 3.58, F 3.12, R 3.52, I 3.64, N 3.06
V19: G 2.58, Q 1.91, T 2.79, H 1.59, S 2.36, A 1.57, I 3.39, N 3, P 1.35, Y 3.2, K 1.67, C 1.56, D 1.52, E 2.23, F 3.22, M 3.54
A17: E 2.93, I 3.06, W 2.94, M 1.86, D 3.07, K 3.13, H 2.31, C 2.38, Y 2.43, V 2.19, P 2.21
A15: F 2, W 2.79, I 1.53, S 2.04, H 1.83, N 4.46, C 2.98, Y 2.87, E 1.6, V 1.07
S9: L 2.59, C 2.09, K 1.72, V 1.64, T 4.83, M 3.56, G 1.9, H 3.52, P 2.5, Q 2.35
G3: D 1.45, N 2.75, A 2.75
C7: Y 2.67, V 3.3, S 3.67, L 4.23, D 3.61, K 3.9, I 2.4, H 2.97, E 2.89
S13: Y 3.16, M 2.09, P 2.41, D 2.27, L 1.69, R 2.27, W 3.02, V 3.12, I 1.36, H 2.36, N 3.74
F2: D 2.56, T 2.73
C10: G 3.33, N 3.16, L 2.7, F 3.06, R 2.77
W14: K 2.54, H 1.95, V 1.36, A 1.8, T 3.22, F 3.1, N 2.96, S 2.45, C 3.08, I 2.21, M 1.1, R 1.48
R6: A 2.65, I 3.19, C 2.07, Q 2.12, Y 2.65, H 2.77, N 1.77, L 3.45, F 1.93
S16: R 2.79, D 2.46, E 3.11, I 2.64, G 1.75, F 2.12, Y 1.78, A 2.73, W 1.86, K 2.9, H 3.4

Variants of: B2
Assay: as above
Settings: c terminus: native

Protein stability index, by site and new letter:
H2: R 3.13, M 3.72, P 1.89, A 3.05, G 2.22, K 3.36, T 3.56, V 1.5, S 3.15, F 3.23, Y 2.31, W 3, N 3.26, L 3.18, E 2.36, Q 3.15, D 2.97
S3: V 3.19, W 2.33, N 2.89, K 2.75, Q 2.63, H 2.27, F 2.38, D 2.29, R 3.09, Y 3.14, I 2.2, L 1.31, C 3.13, A 3.05
G1: P 3.63, T 2.66, S 2.81, L 3.98, Y 2.42, M 2.19, I 3.33, R 3.44, F 3.19, E 2.45, A 4.7, K 2.79, N 2.38, Q 4.66, D 2.81, H 2.43, W 3.55
H7: C 2.65, M 1.87, G 1.83, A 2.72, D 3.05, K 2.14, N 2.44, L 3.37, E 2.1
H5: D 3.54, K 1.69, A 2.92, I 2.64, W 2.3, T 3.1, P 4.04, L 2.65, S 2.38, E 2.3, Y 3.13, N 2.35, F 3.95, M 2.23, C 3.11, G 2.33
S6: L 3.37, D 2.08, F 2.95, W 4, Y 3.47, V 2.71, M 3.95, T 3.3, H 4.03, N 3.28, R 2.98, P 2.12, K 1.55, E 1.84, I 2.27, A 4.79, Q 3.1
H4: E 2.76, F 3.61, C 2.69, D 2.31, Y 2.93, N 4.06, K 2.15, P 3.51, V 2.93, Q 2.37, G 3.39, I 2.58, A 2.45
